Source: PMC11319651, “Distinct conformational states enable transglutaminase 2 to promote cancer cell survival versus cell death” (Communications Biology, 2024)

How the values were obtained:
Transglutaminase 2 (TG2) = molecular target: T1, Transglutaminase 2 (TG2) (Homo sapiens, UniProt P21980); experiment: biochemical; set-up: inhibition of TG2 protein crosslinking activity, gel-based read-out
T1 construct: gene TGM2; N-terminal six-histidine tagged human TG2
T1 sequence (P21980 1-687): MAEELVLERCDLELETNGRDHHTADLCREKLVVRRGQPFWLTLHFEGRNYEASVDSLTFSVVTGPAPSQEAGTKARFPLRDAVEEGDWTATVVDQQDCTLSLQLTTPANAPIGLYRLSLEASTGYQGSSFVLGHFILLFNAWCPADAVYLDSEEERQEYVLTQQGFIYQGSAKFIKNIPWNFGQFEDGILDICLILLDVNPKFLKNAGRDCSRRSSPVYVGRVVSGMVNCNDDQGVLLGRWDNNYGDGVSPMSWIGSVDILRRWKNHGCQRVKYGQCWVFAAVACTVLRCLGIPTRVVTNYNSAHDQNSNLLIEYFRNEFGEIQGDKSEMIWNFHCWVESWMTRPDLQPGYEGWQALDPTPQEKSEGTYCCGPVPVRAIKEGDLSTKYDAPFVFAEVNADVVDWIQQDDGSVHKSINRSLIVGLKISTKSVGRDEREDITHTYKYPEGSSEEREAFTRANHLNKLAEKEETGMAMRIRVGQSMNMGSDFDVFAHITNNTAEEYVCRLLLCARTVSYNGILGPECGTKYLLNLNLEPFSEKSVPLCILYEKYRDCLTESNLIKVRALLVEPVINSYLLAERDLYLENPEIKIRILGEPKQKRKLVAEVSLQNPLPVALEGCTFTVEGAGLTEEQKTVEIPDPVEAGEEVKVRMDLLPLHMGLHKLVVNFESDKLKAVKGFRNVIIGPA
Text: (the LM-series, Fig. S6).

[1] = molecular target: Transglutaminase 2 (TG2), wildtype, recombinant human (human) (UniProt P21980); experiment: SAXS; time-resolved SAXS, Kenics chaotic advection mixer, TG2 1 mg/mL final, 2 mM Ca2+, 0-631 ms; deconvolution into closed state monomer and open state dimer
[2] = molecular target: Transglutaminase 2 (TG2), wildtype, recombinant human (human) (UniProt P21980); experiment: SAXS; static SAXS, 25 µM (2 mg/mL) TG2 with 2 mM Ca2+ for 5 min, TG2 Storage Buffer; DAMMIF envelopes (P1, P2), CRYSOL fit to the open state dimer; deconvolution into monomer and dimer
[3] = molecular target: the molecule itself; experiment: SAXS; static SAXS, TG2 R580K with GTP at concentrations greater than 1 mM (up to 5 mM); CRYSOL fit to the open state dimer (from crystal packing of PDB 2Q3Z)

## O=C1NC(=O)N(c2cccc(Cl)c2)C(=O)/C1=C/Nc1ccc(Cl)c(CN2C(=O)c3ccccc3C2=O)c1 [LM11]
Transglutaminase 2 (TG2)
  IC50: 10 µM

## Transglutaminase 2 (TG2), wildtype, recombinant human (from UniProt P21980 1-687) (enzyme)
[1]
  percent dimer at t = 0 ms: 61%
[2]
  percent dimer after five minutes with Ca2+: 100%
  stoichiometry N: 2

B1: TG2 R580K mutant (enzyme, human)
chain: MAEELVLERCDLELETNGRDHHTADLCREKLVVRRGQPFWLTLHFEGRNYEASVDSLTFSVVTGPAPSQEAGTKARFPLRDAVEEGDWTATVVDQQDCTLSLQLTTPANAPIGLYRLSLEASTGYQGSSFVLGHFILLFNAWCPADAVYLDSEEERQEYVLTQQGFIYQGSAKFIKNIPWNFGQFEDGILDICLILLDVNPKFLKNAGRDCSRRSSPVYVGRVVSGMVNCNDDQGVLLGRWDNNYGDGVSPMSWIGSVDILRRWKNHGCQRVKYGQCWVFAAVACTVLRCLGIPTRVVTNYNSAHDQNSNLLIEYFRNEFGEIQGDKSEMIWNFHCWVESWMTRPDLQPGYEGWQALDPTPQEKSEGTYCCGPVPVRAIKEGDLSTKYDAPFVFAEVNADVVDWIQQDDGSVHKSINRSLIVGLKISTKSVGRDEREDITHTYKYPEGSSEEREAFTRANHLNKLAEKEETGMAMRIRVGQSMNMGSDFDVFAHITNNTAEEYVCRLLLCARTVSYNGILGPECGTKYLLNLNLEPFSEKSVPLCILYEKYRDCLTESNLIKVRALLVEPVINSYLLAEKDLYLENPEIKIRILGEPKQKRKLVAEVSLQNPLPVALEGCTFTVEGAGLTEEQKTVEIPDPVEAGEEVKVRMDLLPLHMGLHKLVVNFESDKLKAVKGFRNVIIGPA
notes: human transglutaminase 2 (TGM2), UniProt P21980, with the substitution R580K; The methods describe expression and purification only for TG2 in general; also called TG R580K
[3]
  stoichiometry N: 2
